# Test results as given in the DeepSol protein solubility set.
# Assay: soluble on expression in E. coli; label from the status in PepcDB or PDB records
row,Sequence,soluble on expression in E. coli
1,MDRLQLYESKKLRRETPLSPLLRIFAGQSVHNHRPMYFRDVAGLEDLKTYLRRTAQTRQIAHAQLFAGEEGGGAFPLALAYARYLNCQMPTDTDACGHCPSCVKYDALAHPDLFFVYPVVNASSSPAPSDDYIRQWREMLGSESYFTPADWLEYIKAGNSQPIIYSKEAEAVEQKLSFRIYEASYRVVMIWQPERMNEAMANKLLKLIEEPPEHTLFFMISSEPDKVLGTIRSRTQLINVRLLHEIEIVEALSRNNQGNTADIIRIAHLAEGNYRRAMDLYRGEWADRDNFVLMGRMMGSIIKGDPSKMRPVADELAALGRVSQIGFLTYCLRLFRELYISRVGVAKLNYLSPEEESFVDMLSGGITGQNIRPVMEEVELAIRHIRQNGNGRMIFFDLLLRLTAALAPALRAKGLK,not soluble
2,MDRRFPPFSPFFNHGRRFFDDVDFDRHMIRPYWADQTMLTGHRVGDAIDVVNNDQEYNVSVDVSQFEPEELKVNIVDNQLIIEGKHNEKTDKYGQVERHFVRKYNLPTGVRPEQIKSELSNNGVLTVKYEKNQEQQPKSIPITIVPKRN,not soluble
3,MDRSAEFRKWKAQCLSKADLSRKGSVDEDVVELVQFLNMRDQFFTTSSCAGRILLLDRGINGFEVQKQNCCWLLVTHKLCVKDDVIVALKKANGDATLKFEPFVLHVQCRQLQDAQILHSMAIDSGFRNSGITVGKRGKTMLVVRSTHGLEVPLSHKGKLMVTEEYIDFLLNVANQKMEENKKRIERFYNCLQHALERETMTNLHPKIKEKNNSSYIHKKKRNPEKTRAQCITKESDEELENDDDDDLGINVTIFPEDY,not soluble
4,MDRSERLIQLISEEGIDAFLIMNIENSARASSVYFSGFTGSFSIILISENTRLLITDSRYTVQAKQETDFEVREVKGGDFIDVLKKTVNDLKIKTIALEEERVSLSLFRRISSAFGDRKFIGIDDEVKQMRMVKDEGEIEKIKQAIEISERAFLETVQQIRAGMTEKEIAALLEYTMRKEGAEGVAFDTIVASGCRSALPHGKASDKVVERGDVIVIDFGATYENYCADITRVVSIGEPSDEVKEVHSIVLEAQERALKIAKAGVTGKLLDSVAREFIREKGYGEFFGHSLGHGIGLEVHEGPAISFRNDSPLPENVVFTVEPGIYLEGKFGIRIEEDVVLKEQGCEILTTLPRSIFVV,soluble
5,MDRVIEDKELGRLVVRDNVRAKRLVFRTKADAIYISIPLGVTMREVKEAIEKLRPRLLDSRQKLVRPLIDLNYRIETEYFKLSLVSGKRERFLAHSELGEMRIICPPTADFTDSNLQDWLRKVIEEALRRNAKIILPPRLYMLSEKHRLPYESVQINSSRGRWGSCSSRKKINLSYFLVLLPKHLIDYVLLHELCHTCEMNHGDRFWNLLNGLTDGKALELREELKRYKTEILEHHHHHH,not soluble
6,MDSDSGEQSEGELSPGHESFNSKSLALQAQKKILSKMATMAVANLLTDDTSSEILDELYKASREYTKSKKEAHKIIKDVIKIALKIGILYRNHQFSPEEMETVERFKKKMNQAAMTVVSFYEVEYTFDRGILSELLLECRDLLHELVEHHLTMRSHGRIDHVFNHFADVDFLTELYGPSEDYRLNLRKICDGINKLLDEGTL,not soluble
7,MDSGMVTPELKKAFAERGIDIIPVDVGTKMLVNELHPSHHDSTQVVIGSPIIPAPGNIDPQLRSYRIRRRMTVEANPFLLDHVIAGTPVLPATCGMSWMINACEECYPGYRYFRCQDFKILKGITFNDKVASEHILEIQEVAKHGSESIEFKTKVLSKTPEGKIHYHFSAHITIVRELPAAPVYESLDMTEDHTIGAIGKDFYQKGGLSLFHGISFQQITRVLNINSQKITVECCWAEIPLETQGQFPVKWHNPYATDLSTQPLWLWLSHVHQEVCLPGQITKSEQFRAIPRNKPFYVSCEIEHKTPSGVTADIILHDREGKIYFRIYQAKAIIAPMNLHLEHHHHHH,not soluble
8,MDSKSHGWLIGANGTILETHDGGEHWEPRTFDFLRMDEEINYRFESISCYGNEGWIVGKPPILLHTQNGGKDWERIPLSSKLPGEPVLITALGPNRAELATTAGAIYTTDNGGKNWKALVKETIDATLNRTTSSGVTGASYYTGTVISITRDCNGYYLAISSRGNFYVTWHPGQEYWTPHPRDSSRRIQSMGFVQNDIHKGLWMANNGGFLGFSPPNPSLDTVSSIPFQRVDIRTGGYGILDVAFHQQKRNEVWASVGSGILYRSFDGGKHWEKDPWLDHLGSVLYRIKFVENSGFILGAKGTLLRYNG,soluble
9,MDSNEIIKRVRERVYREVKKKYTRDDLDTRIQDVLYYRSETYMKLVSFANGKRIKKLADPRKFEKFMDTKGVKIVAEVLDGLNNQPKMQAMEYEQKVLTKVRQWYQKKNHPELVDLEEEAFEQLVEKNIIYKKMKKRLYEEQDNQGFVYSDNFDMQLIRDSCDIEEALYLDITLGDY,not soluble
10,MDSQAQVLILLLLWVSGTCGDIVMSQSPSSLAVSAGEKVTMSCKSSQSLLNSRTRKNYLAWYQQKPGQSPKLLIYWASTRESGVPDRFTGSGSGTDFTLTISSVQAEDLAVYYCKQSYNLYTFGGGTKLEIKRADAAPTVSIFPPSSEQLTSGGASVVCFLNNFYPKDINVKWKIDGSERQNGVLNSWTDQDSKDSTYSMSSTLTLTKDEYERHNSYTCEATHKTSTSPIVKSFNRNEC,soluble
11,MDSRPGLRTTSPSSGTRTGRSNTRTLPPDPLLECAGRTRWPFGIREPDEDYPVTIIETEGFLNLVSVSAVALNQPFSLFFGAGVVLIPVRFECMRTPPVPAGRGGRVIRIVKFGIVRHLFSLLAQQVPVVQADGWIVNQNDQKKQNPPKRVKCGCVEDA,not soluble
12,MDSSFTPIEQMLKFRASRHEDFPYQEILLTRLCMHMQSKLLENRNKMLKAQGINETLFMALITLESQENHSIQPSELSCALGSSRTNATRIADELEKRGWIERRESDNDRRCLHLQLTEKGHEFLREVLPPQHNCLHQLWSALSTTEKDQLEQITRKLLSRLDQMEQDGVVLEAMS,not soluble
13,MDTFRVFSLFAGISINNSHLLEFAVKAGREVMELNEHRATLFNKNVPSRGVKRVTAITNREREAVLRIEFPNVDVTDIDFDLFQARESTDKPLDVAAAIAYRLLLGSGLPQKFGCSDEVLLNFILQCRKKYRNVPYHNFYHVVDVCQTIYTFLYRGNVYEKLTELECFVLLITALVHDLDHMGLNNSFYLKTESPLGILSSASGNKSVLEVHHCNLAVEILSDPESDVFGGLEGAERTLAFRSMIDCVLATDMARHSEFLEKYLEIMKTSYNVDDSDHRQMTMDVLMKAGDISNVTKPFDVSRQWAMAVTEEFYRQGDMEKERGVEVLPMFDRSKNMELAKGQIGFIDFVAAPFFQKIVDACLQGMQWTVDRTKSNRAQWERVLEARSTG,not soluble
14,MDTIDLGNNESLVYGVFPNQDGTFTAMTYTKSKTFKTENGARRWLERNSGE,soluble
15,MDTNITWHTASVSKDERRVKNGHHSFVIWFTGLSASGKSTVANAVARKLFEKNIGNYVLDGDNIRHGLNKDLGFSESDRMENIRRIGEVAKLFVDQGAVVLTAFISPFRVDRKQVRDLLAVDEFIEVFVKCPIEECEKRDPKGLYKKARKGDIKEFTGIDSPYEEPEKAELIVETHKYSIEECAEQIVKYLQERSLI,not soluble
16,MDTQQIDVMVADASHEVYVDTILETIRNAAAVRGTGIAERTHEYVATKMKEGKAIIALCGDTFAGFTYIESWGNKQYVATSGLIVHPDFRGLGLAKRIKQASFQLARLRWPKAKIFSLTSGAAVMKMNTELGYVPVTFNELTDDEAFWKGCEGCTNHDILAAKNRKFCICTAMLYDPTDPRNIKKEQERNNI,not soluble
17,MDTSDHKPLIDRFETEFAEKSSLLRKEESELKRPDLRGDFLCLSCGQNFKHGASLNRHRKLVHSDEYTCMLCARKLYLKETVRDHMRNEHYLGQVYTCGCCNWTFSNKKALTEHAKAIQETGAPGDANPIAKSGNSPGSLLKSPIQRAGFKLNRLLNKSLSPSTSNSTTSSSSRDASGSPQPELELKLEPEPEPEPNEEALEYKRFFNNAVDTILQRNFFTDQQITEVDTWVIIIESANALATALQSYKKAQQIQPAEPAMIPEKRIKPEIE,soluble
18,MDTTNQSEDIKPCDSDLMESILMFDEPISDILAHNKLWISHARTRSNFFPQEGRHISNQHTEAATSLKMWMLSKNLVVIVKRKDDIFPCKILTRNPENLFVARFLESGKEKHIQVEYSDIIMTRSELEKALPLCQHLIPARNWDDFYIIRDFEKATPYFEQGLSALVKPGQQFELQLEDAPDFYVMATVVKNYRGFLLVEYQNVSCVQKKTMPVFLFHFLMLFQFKRWIHMLSPYCHEIGWGKNEKQEYLKRGPYNRHMNVDLVAGLVKQSTNQKLGAVPEIVFRNNCPVPHRIPEYSACVYLDLDQKRFYFAHKVTTKTCRNNRHFFNISIGKNLVTSKQNNRPYEFHVYHPRILPYSVAKRMEVQIILPPDVKLLPDESNLDGYLRTYCNPCDKHKTSDRVQPSPKIAKKKNGPLLLDDTPDAMFRSRPLLGDNIGAHKEWTNFMNHIPDYKRKDLLKSMDTLKFCEIFRPTPTGALQLTAAEVTGQQECMLRLKVSGEDEPVYIHNADPHLYHLGACLDMELAINFHGEFFDEKPLKKNKNANNGFSSF,not soluble
19,MDVFNRNAERYDAWYDRNRELYEAELELLPKPISPSVEVGVGTGRFAVIGIDLGVDVSLQMLRIAKKRGVECVAGDAAHLPFKDKSFRSAYLIFTLCFLDEPIKALMEIKRVLEGTLVACVVPANSGLGREYSGKDSSFYRKARFLTEDEVLSMLRETGFKVKEIRRRKLKYDENDFVCFIAES,not soluble
20,MDVLPGRPRARRRRRRRQSRANILAIGVHLPRLRLSRGAMANALGWLSGGAGAGKGSRTLAYWDEDSVTMAVAAARHALARQAAPAIDALQFASTTPPFAEPQNAAFVRAALRLPATTLTQDVHGTPRAGLLALHMALESGTRTLVAAADLPTALPGSTAEARAGDGGAAVLTGDEPGLLRYLGGASLSAPFTDRYRAAGHDYPQEWEERWLREAGYLELVHDAIGRALQAASLRPEQVDHFVLPCPVPGVAAAVAAKAGLGQARLASALAENCGDTGAAHAFVMLGRALEDAAPGQKVLVAQFGQGATALLFEADEAVAGLAAPVSPALRDGLAEDNYMKLLAFRGRIAWDRGLRGRFLVNEALSTAWRNADALLDFVGGRCRETGQVQFPPTRLAATGGFHLDTQEPWPLADRGGRIATFTADLLAFSPCPPNCYGLVDIDGGGRVLMEFTDPQASQLEAGAAVAFALRIKDLDPQTGYRRYFWKALAAPTAD,not soluble
21,MDWLLTPGPVRLHPKALEALARPQLHHRTEAAREVFLKARGLLREAFRTEGEVLILTGSGTLAMEALVKNLFAPGERVLVPVYGKFSERFYEIALEAGLVVERLDYPYGDTPRPEDVAKEGYAGLLLVHSETSTGALADLPALARAFKEKNPEGLVGADMVTSLLVGEVALEAMGVDAAASGSQKGLMCPPGLGFVALSPRALERLKPRGYYLDLARELKAQKEGESAWTPAINLVLAVAAVLEEVLPRLEEHLALKAWQNALLYGVGEEGGLRPVPKRFSPAVAAFYLPEGVPYARVKEAFAQRGAVIAGGQGPLKGKVFRLSLMGAYDRYEALGVAGMFREVLEEILPAS,soluble
22,MDYFDRCYIINLPERRDRRREMEKELERAGMPPMPGRVEFFPAIRPESAGPFPSIGAHGCFLSHLGILRAAKAQGLRNVLILEDDLTFAAQFPEVEEKLVGELRETPWDFAFFGHVLEFPEVPPDRAHLEPYAGPIVTAHFYAVNGAVIDRLLGFLDALLQRPPGHPDGGPMHVDGAYSTFRQQNPDVVTLVAVPSQGWQRSSRSDIAPNRWYDRWPLVRSLVALARRGKTWLRGNRRHAAALEHHHHHH,not soluble
